Measurements from article PMC9074039, “Molecular analysis and essentiality of Aro1 shikimate biosynthesis multi-enzyme in Candida albicans” (Life Science Alliance, 2022).

Columns and labels:
[1] = molecular target: the molecule itself; assay: crystal structure; Aro1_(DHQS) with 2 mM NADH and 0.5 mM ZnCl2, sitting drop, room temperature; two copies in the asymmetric unit
[2] = molecular target: the molecule itself; assay: crystal structure; Aro1_(SK-DHQase-DHSD), sitting drop, room temperature; four copies in the asymmetric unit
[3] = molecular target: the molecule itself; assay: SEC; Superdex 200, 150 mM NaCl, 10 mM Hepes pH 7.5; tag-free Aro1 purified from C. albicans

B1: Aro1_(DHQS), C. albicans Aro1 residues 1-387 (DHQS domain) (domain or fragment, UniProt Q5AME2 1-387, looked up)
chain: MSIEKVPILGKETIHVGYGIADHIVREVIANLASSTYVIVTDTNMARTPQYSKLTDDFKTNLSEKRPESRLLTYCVSPGENNKNRATKAAVEDFLLQQGCTRDTVILAVGGGVIGDMIGFVAATFMRGVRVVQVPTTLLAMVDSSVGGKTAIDTPLGKNFIGAFHQPEYVFCDVSFLETLPARQFINGMAEVVKTAAIWNEEEFTRLENFSKKFLSVVTSKKPDLQSIKAELVKTVLESVRVKAGVVSSDEKEAGLRNLLNFGHTIGHAIEAVLTPEALHGECVSIGMIKEAELSRYLGILPPVAVARLSKCLVAYGLPVSIDDKEFLKKVGPKRHYVEIDILLKKMAIDKKNDGSKIRCVLLEKIGKCYQLKAHQVSKQDLSFVLT
notes: Aro1, Candida albicans, residues 1-387, 3-dehydroquinate synthase (DHQS) domain; Crystallised with NADH and ZnCl2; source: E. coli BL21(DE3) Gold, purified (Ni-NTA, TEV cleavage, second Ni-NTA); not shown: His6, N-terminal, cleaved
B1: binds [1].

B2: Aro1_(SK-DHQase-DHSD), C. albicans Aro1 residues 845-1,551 (SK, DHQase and DHSD domains) (domain or fragment, UniProt Q5AME2 845-1551, looked up)
chain: PPFNTDKHVDKSSDKSIIVIGMRGTGKSTLSEWLASFLGFKMLDMDKYLEEKLGTGIKSLIKAKGWEYFRQEEAIVAKECFTKFSKGYVLSTGGGIVEGEDARQQLKSYADNGGIVLHLHRDLDETVTFLAADTTRPAYSSEVQEVWLRREKWYHECSNYHFYSSHCSTEDEFNHLRRSFVNYIKLITGAERPVVPAGRSAAVVLTSPDLNEVVGDLESITIGADAVELRVDLFKDTSAEFVAAQIAVIRKHADLPIIYTVRTVSQGGKFPDENVDELKSLLLLGIRLGVAYVDLQLTAPNELIEEISSKKGFTRVIGTYQDINGELKWNNVEWKNKYNQGVSMNADIVRLVGKANSIQDNLDLENFKKQNTLKPLIAFNLGSQGKLSQVLNGTFTPISHKLLPNDEEFLTIGELNQTYFDIGGFTAKKFWVIGSPIEHSRSPNLHNAGYKALNLPYQFGRFEATDVDVVYDNLINKPDFGGLAITMPLKLDIMKFATKLSDAAETIGAVNTLIPIEGGYFGDNTDWVGISNSFIRAGVPPKSSSNGLVVGAGGTSRAAIYALHQMGCAKIYLVNRTAAKLEELVKSFPKDYNLEIVETEQQADKASKVSLAVSCIPADKPLDGEVLKKIERILSNGSEQSAGFKPTLLEASYKPRVTPIMKLTEEQYKWKVIPGVEMLVNQGDRQFKLHTGFTAPYEIIHRAVVEE
notes: Aro1, Candida albicans, residues 845-1551: SK domain (857-1032), linker (1033-1038), DHQase domain (1039-1267), DHSD domain (1268-1551); Four copies in the asymmetric unit; also called Aro1_(SK-DHQ-DHSD); source: E. coli BL21(DE3) Gold, purified (Ni-NTA, TEV cleavage, second Ni-NTA); not shown: His6, N-terminal, cleaved
B2: binds [2].

B3: full-length C. albicans Aro1 (enzyme, UniProt Q5AME2 1-1551, looked up)
chain: MSIEKVPILGKETIHVGYGIADHIVREVIANLASSTYVIVTDTNMARTPQYSKLTDDFKTNLSEKRPESRLLTYCVSPGENNKNRATKAAVEDFLLQQGCTRDTVILAVGGGVIGDMIGFVAATFMRGVRVVQVPTTLLAMVDSSVGGKTAIDTPLGKNFIGAFHQPEYVFCDVSFLETLPARQFINGMAEVVKTAAIWNEEEFTRLENFSKKFLSVVTSKKPDLQSIKAELVKTVLESVRVKAGVVSSDEKEAGLRNLLNFGHTIGHAIEAVLTPEALHGECVSIGMIKEAELSRYLGILPPVAVARLSKCLVAYGLPVSIDDKEFLKKVGPKRHYVEIDILLKKMAIDKKNDGSKIRCVLLEKIGKCYQLKAHQVSKQDLSFVLTDEVLVHPFTNPPKENIIVPPGSKSISNRALILAALGNGTVRVKNLLHSDDTKHMLDAVASLKGAEISTEDNGETIVVKGNGGNLVTSGEELYLGNAGTASRFLTTVASLVGKSQASDDVILTGNARMQERPIGPLVDALGSNGSEIEYLNKQGSLPLKISAGNGLKGGRIELAATISSQYVSSILMCAPYAKEPVTLALVGGKPISQLYIDMTCAMMKSFGIEVTKSTTEEYTYHIPKGTYKNPSEYVIESDASSATYPLAFAAMTGTSCTIPNIGSSSLQGDAKFAVDVLKPMGCKVEQTTTSTTVTGPPRGHLKPLPHVDMEPMTDAFLTASVVAAVAKGGSSTSITGIANQRVKECNRIEAMVTELAKFGVPANELPDGIEIHGIDIEDLKTPEISKRGVSSYDDHRVAMSFSLLAGLCKEPVLILERSTTGKTWPGWWDILHSKFKIELDGYEPPFNTDKHVDKSSDKSIIVIGMRGTGKSTLSEWLASFLGFKMLDMDKYLEEKLGTGIKSLIKAKGWEYFRQEEAIVAKECFTKFSKGYVLSTGGGIVEGEDARQQLKSYADNGGIVLHLHRDLDETVTFLAADTTRPAYSSEVQEVWLRREKWYHECSNYHFYSSHCSTEDEFNHLRRSFVNYIKLITGAERPVVPAGRSAAVVLTSPDLNEVVGDLESITIGADAVELRVDLFKDTSAEFVAAQIAVIRKHADLPIIYTVRTVSQGGKFPDENVDELKSLLLLGIRLGVAYVDLQLTAPNELIEEISSKKGFTRVIGTYQDINGELKWNNVEWKNKYNQGVSMNADIVRLVGKANSIQDNLDLENFKKQNTLKPLIAFNLGSQGKLSQVLNGTFTPISHKLLPNDEEFLTIGELNQTYFDIGGFTAKKFWVIGSPIEHSRSPNLHNAGYKALNLPYQFGRFEATDVDVVYDNLINKPDFGGLAITMPLKLDIMKFATKLSDAAETIGAVNTLIPIEGGYFGDNTDWVGISNSFIRAGVPPKSSSNGLVVGAGGTSRAAIYALHQMGCAKIYLVNRTAAKLEELVKSFPKDYNLEIVETEQQADKASKVSLAVSCIPADKPLDGEVLKKIERILSNGSEQSAGFKPTLLEASYKPRVTPIMKLTEEQYKWKVIPGVEMLVNQGDRQFKLHTGFTAPYEIIHRAVVEE
notes: Aro1 pentafunctional shikimate pathway multi-enzyme (DHQS, EPSPS, SK, DHQase, DHSD domains), Candida albicans, full length, residues 1-1551; Expressed from the tagged genomic ARO1 alleles under the tetO promoter in C. albicans; the His6TEV tag was removed with TEV protease before SEC and cryo-EM; also called His6TEVAro1; wild-type Aro1; source: C. albicans CaLC6830 …
For B3, the “stoichiometry N” value [3] was 2.
